Measurements as given in patent US20220298237A1 (KEIO UNIVERSITY, published 2022).
Substitutions are numbered along the chain they refer to. Several values for one entry are separate records, joined by “and”; a condition that tells them apart may be missing. Identical values can stand only once. Blank lines part the entries; values can stand above or below the binder they belong to.

Assays:
[1] = target: T1, oligopeptide SRGTHGGFL (SEQ ID NO: 2); test: ELISA on peptide SEQ ID NO:2 (FIG. 16B)
T1 construct: Synthetic peptide of AQP3 Loop A; also called Loop A peptide; control peptide
T1 peptide: SRGTHGGFL

[2] = target: T2, oligopeptide GIFATYPSGHLDM (SEQ ID NO: 107); test: ELISA on coated peptide
T2 construct: Synthetic peptide, part of Loop C of AQP3
T2 peptide: GIFATYPSGHLDM
Protocol: (§1) To determine the important amino acid residues of an epitope in Loop C involved in binding to specific AQP3 antibody clones, peptides of varying lengths were produced. The sequences of these peptides are shown in column 2 of Table 4.
(§2) The various peptides and AQP3 antibody clones were subjected to ELISA binding analyses. […] The microtiter wells (Costar 2690) were coated with 50 μL of each peptide at 4° C. overnight. The wells were washed 3 times with PBS and blocked with 100 μL of 1% BSA/PBS at 37° C. for 1 hour. Each antibody was adjusted to 1 μg/mL in 1% SBA/PBS as above then serially diluted 1:5 in 1% BSA/PBS. The blocker was discarded and the wells were incubated with 50 μL of antibodies at 37° C. for 1.5 hours. The wells were washed 3 times with PBS and mouse antibodies were detected with 50 μL of goat anti-mouse IgG (H+L) HRP conjugate (ThermoFisher 31438) (1:5,000 in 1% BSA/PBS) and rabbit antibodies were detected with 50 μL of goat anti-rabbit IgG (H+L) HRP conjugate (ThermoFisher 31462) (1:5,000 in 1% BSA/PBS) at 37° C. for 1 hour. The wells were washed 3 times with PBS and developed with 50 μL of HRP substrate at RT for 5 min then stopped with 50 μL of 2N sulfuric acid and binding was measured with a plate reader.

[3] = target: T3, oligopeptide ATYPSGHL (SEQ ID NO: 102); test: ELISA on coated peptide
T3 construct: Synthetic peptide, part of Loop C of AQP3
T3 peptide: ATYPSGHL
Protocol: as §1, §2

[4] = target: T4, oligopeptide GHLDM (SEQ ID NO: 100); test: ELISA on coated peptide
T4 construct: Synthetic peptide, part of Loop C of AQP3
T4 peptide: GHLDM
Protocol: as §1, §2

[5] = target: T5, oligopeptide TAGIFATYPSGHLDM (SEQ ID NO: 105); test: ELISA on coated peptide
T5 construct: Synthetic peptide, part of Loop C of AQP3
T5 peptide: TAGIFATYPSGHLDM
Protocol: as §1, §2

[6] = target: T6, oligopeptide SGPNGTAGIFATYPS (SEQ ID NO: 94); test: ELISA on coated peptide
T6 construct: Synthetic peptide, part of Loop C of AQP3
T6 peptide: SGPNGTAGIFATYPS
Protocol: as §1, §2

[7] = target: T7, oligopeptide ATYPSGHLD (SEQ ID NO: 101); test: ELISA on coated peptide
T7 construct: Synthetic peptide, part of Loop C of AQP3
T7 peptide: ATYPSGHLD
Protocol: as §1, §2

[8] = target: T8, oligopeptide AGIFATYPSGHLDM (SEQ ID NO: 106); test: ELISA on coated peptide
T8 construct: Synthetic peptide, part of Loop C of AQP3
T8 peptide: AGIFATYPSGHLDM
Protocol: as §1, §2

[9] = target: T9, oligopeptide ATYPSG (SEQ ID NO: 104); test: ELISA on coated peptide
T9 construct: Synthetic peptide, part of Loop C of AQP3
T9 peptide: ATYPSG
Protocol: as §1, §2

[10] = target: T10, oligopeptide PSGHLDM (SEQ ID NO: 98); test: ELISA on coated peptide
T10 construct: Synthetic peptide, part of Loop C of AQP3
T10 peptide: PSGHLDM
Protocol: as §1, §2

[11] = target: T11, oligopeptide FATYPSGHLDM (SEQ ID NO: 109); test: ELISA on coated peptide
T11 construct: Synthetic peptide, part of Loop C of AQP3
T11 peptide: FATYPSGHLDM
Protocol: as §1, §2

[12] = target: T12, oligopeptide IFATYPSGHLDM (SEQ ID NO: 108); test: ELISA on coated peptide
T12 construct: Synthetic peptide, part of Loop C of AQP3
T12 peptide: IFATYPSGHLDM
Protocol: as §1, §2

[13] = target: T13, oligopeptide SGHLDM (SEQ ID NO: 99); test: ELISA on coated peptide
T13 construct: Synthetic peptide, part of Loop C of AQP3
T13 peptide: SGHLDM
Protocol: as §1, §2

[14] = target: T14, oligopeptide TYPSGHLDM (SEQ ID NO: 96); test: ELISA on coated peptide
T14 construct: Synthetic peptide, part of Loop C of AQP3
T14 peptide: TYPSGHLDM
Protocol: as §1, §2

[15] = target: T15, oligopeptide ATYPSGHLDM (SEQ ID NO: 1) (human and mouse); test: ELISA on coated peptide
T15 construct: Synthetic peptide; positions 148 to 157 of the human AQP3 polypeptide, identical in mouse; also called peptide used for immunization; oligopeptide 5
T15 peptide: ATYPSGHLDM
Protocol: as §1, §2

[16] = target: T16, oligopeptide YPSGHLDM (SEQ ID NO: 97); test: ELISA on coated peptide
T16 construct: Synthetic peptide, part of Loop C of AQP3; first diluted in DMSO
T16 peptide: YPSGHLDM
Protocol: as §1, §2

[17] = target: T17, oligopeptide ATYPSGH (SEQ ID NO: 103); test: ELISA on coated peptide
T17 construct: Synthetic peptide, part of Loop C of AQP3
T17 peptide: ATYPSGH
Protocol: as §1, §2

[18] = target: T18, mouse aquaporin 3 (AQP3) on cells (mouse, UniProt Q8R2N1 1-292); test: fluorescence binding assay on PAM212 cells, 10 µg/mL
T18 construct: whole, on cells; Water channel membrane protein; also called mouse AQP3; AQP3 on PAM212 cells
T18 sequence (looked up): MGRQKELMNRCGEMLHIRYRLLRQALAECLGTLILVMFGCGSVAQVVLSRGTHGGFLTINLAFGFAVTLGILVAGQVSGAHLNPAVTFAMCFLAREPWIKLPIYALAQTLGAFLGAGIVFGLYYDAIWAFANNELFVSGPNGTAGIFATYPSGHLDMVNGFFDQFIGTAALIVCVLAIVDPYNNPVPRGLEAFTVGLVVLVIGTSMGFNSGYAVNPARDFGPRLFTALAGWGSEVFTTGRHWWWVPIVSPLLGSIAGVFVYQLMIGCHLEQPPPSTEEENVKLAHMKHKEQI
Protocol: (§3) PAM212 cells were reacted with each anti AQP3 antibody at concentrations of none, 1 ng/mL, 10 ng/mL, 100 ng/mL, 1 μg/mL, or 10 μg/mL at 4° C. for 1 hour. After washing the cells, a fluorescent-labeled secondary antibody was added and the reaction was allowed to occur additionally for 1 hour (at 4° C.). By measuring the fluorescence intensity, the binding property of each anti AQP3 antibody to cells was obtained.

[19] = target: T19, human aquaporin 3 (AQP3) on cells (human, UniProt Q92482 1-292); test: fluorescence binding assay on HaCaT cells, 10 µg/mL
T19 construct: whole, on cells; Water channel membrane protein; also called human AQP3; AQP3 on HaCaT cells
T19 sequence (looked up): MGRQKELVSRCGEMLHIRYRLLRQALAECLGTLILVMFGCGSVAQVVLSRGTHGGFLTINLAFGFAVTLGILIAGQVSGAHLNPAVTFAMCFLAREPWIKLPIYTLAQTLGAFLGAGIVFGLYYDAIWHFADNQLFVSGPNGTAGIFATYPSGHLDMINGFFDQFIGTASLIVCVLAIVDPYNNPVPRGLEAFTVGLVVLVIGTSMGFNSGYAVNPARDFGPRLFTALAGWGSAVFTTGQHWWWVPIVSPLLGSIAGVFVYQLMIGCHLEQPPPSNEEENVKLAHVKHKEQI
Protocol: as §3, with “HaCaT” for “PAM212”

[20] = target: T18, mouse aquaporin 3 (AQP3) on cells; test: fluorescence binding assay on PAM212 cells with AQP3 siRNA (10% of AQP3 expression) against control siRNA, 1 µg/mL (FIG. 19)
Protocol: The resulting siRNA AQP3 cell line had 10% of the AQP3 expression compared to the control siRNA cell line. The siRNA AQP3 and control siRNA PAM212 cells were reacted with SC—F8, BC—H9, BC—B10, and SC—B6 at the chosen concentration 1 μg/mL at 4° C. for 1 hour. After washing the cells, a fluorescent-labeled secondary antibody was added and the reaction was allowed to occur additionally for 1 hour (at 4° C.). By measuring the fluorescence intensity, the binding property of each anti AQP3 antibody to the two cell lines was obtained.
The result of the above experiment is shown in FIG. 19, wherein the vertical axis represents fluorescence intensity, and the mean fluorescence intensity of each sample is represented by bar height together with standard error.

[21] = target: T15, oligopeptide ATYPSGHLDM (SEQ ID NO: 1); test: ELISA on peptide SEQ ID NO:1, IgG, 50% binding response (FIG. 16A)
[22] = target: T18, mouse aquaporin 3 (AQP3) on cells; test: fluorescence binding assay on PAM212 cells, 1 ng/mL to 10 µg/mL (FIG. 17A)
Protocol: as §3

[23] = target: T18, mouse aquaporin 3 (AQP3) on cells; test: cell-based or functional assay

binding result [1]: no binding
binding signal (plate reader) [2]: 3.88
binding signal (plate reader) [3]: 4
binding signal (plate reader) [4]: 0.123
binding signal (plate reader) [5]: 3.99
binding signal (plate reader) [6]: 3.76
binding signal (plate reader) [7]: 3.96
binding signal (plate reader) [8]: 3.9
binding signal (plate reader) [9]: 3.54
binding signal (plate reader) [10]: 3.72
binding signal (plate reader) [11]: 3.92
binding signal (plate reader) [12]: 3.88
binding signal (plate reader) [13]: 0.405
binding signal (plate reader) [14]: 3.96
binding signal (plate reader) [15]: 3.98
binding signal (plate reader) [16]: 3.96
binding signal (plate reader) [17]: 3.91
fold fluorescence intensity over no antibody [18]: ≥ 2 fold
fold fluorescence intensity over no antibody [19]: > 2 fold
fold decrease in fluorescence intensity on AQP3 siRNA cells against control siRNA cells [20]: ~2 fold
EC50 [21]: 0.01 µg/mL and ~0.06 nM
B1: BC-B10 (IgG) (antibody, V domains shown)
VH: QSVEESGGRLVTPGAPLTLTCTVSRFSLSSYAMTWVRQAPGKGLEWIGIINNDVISSTWYASWVKGRFTISKTSTTMELKMTSLTTEDTATYFCARGGTSGYDIWGPGTLVTVSS
VL: AIKMTQTPSPVSAAVGGTVTINCQSSPSVYKNYLSWYQQKPGQPPKLLIYGASTLASGVPSRFKGSGSGTQFTLTISDVQCDDAATYYCAGGYIGSRDIFSFGGGTEVVVK
notes: also called anti AQP3 antibody BC-B10

binding result [1]: no binding
binding signal (plate reader) [2]: 3.8
binding signal (plate reader) [3]: 3.9
binding signal (plate reader) [4]: 0.048
binding signal (plate reader) [5]: 3.92
binding signal (plate reader) [6]: 0.824
binding signal (plate reader) [7]: 3.9
binding signal (plate reader) [8]: 2.65
binding signal (plate reader) [9]: 0.627
binding signal (plate reader) [10]: 0.733
binding signal (plate reader) [11]: 3.75
binding signal (plate reader) [12]: 3.76
binding signal (plate reader) [13]: 0.053
binding signal (plate reader) [14]: 3.99
binding signal (plate reader) [15]: 3.94
binding signal (plate reader) [16]: 3.94
binding signal (plate reader) [17]: 3.16
binding result [22]: binds
EC50 [21]: 0.01 µg/mL and ~0.06 nM
B2: BC-H9 (IgG) (antibody, V domains shown)
VH: B1 VH with V3L, A15T, R25G, S29Y, S30T, T34G, V54G, E78D, S115L
VL: B1 VL with I2Q, K3G, M4L, S26G, P41A, I94R, R97S, S101A
notes: also called anti AQP3 antibody BC-H9

binding result [1]: no binding
binding signal (plate reader) [2]: 3.79
binding signal (plate reader) [3]: 4
binding signal (plate reader) [4]: 0.097
binding signal (plate reader) [5]: 3.96
binding signal (plate reader) [6]: 2.02
binding signal (plate reader) [7]: 3.92
binding signal (plate reader) [8]: 3.83
binding signal (plate reader) [9]: 0.915
binding signal (plate reader) [10]: 2.23
binding signal (plate reader) [11]: 3.87
binding signal (plate reader) [12]: 3.69
binding signal (plate reader) [13]: 0.135
binding signal (plate reader) [14]: 4
binding signal (plate reader) [15]: 3.98
binding signal (plate reader) [16]: 3.96
binding signal (plate reader) [17]: 3.44
decrease in H2O2 uptake in PAM212 cells against no antibody control [23]: ~2 fold
fold fluorescence intensity over no antibody [18]: ≥ 2 fold
fold fluorescence intensity over no antibody [19]: > 2 fold
EC50 [21]: 0.01 µg/mL and ~0.06 nM
B3: SC-B6 (IgG) (antibody, V domains shown)
VH: B1 VH with E4K, R25G, S29N, S30N, V54G, T69I, M77V, E78D, S115L
VL: B1 VL with I2Q, K3G, M4P, G67R
notes: also called anti AQP3 antibody SC-B6
